Laboratory results reported in patent publication US20090136418A1.

Key:
[1] = target: unknown target molecule expressed on the plasma membranes of human HCC cells
[2] = target: unknown target molecule expressed on the plasma membranes of human HCC cells; assay: flow cytometry on HCC cell line HA22T; parameters: concentration or dose not given beside the values
[3] = target: unknown target molecule expressed on the plasma membranes of human HCC cells; assay: flow cytometry on HCC cell lines Mahlavu, 59T, Hep3B, HepG2, NTUBL and SKHepl (range over the six lines); parameters: concentration or dose not given beside the values
[4] = target: unknown target molecule expressed on the plasma membranes of human HCC cells; assay: flow cytometry on HCC cell lines Changliver and J5 (range over the two lines); parameters: concentration or dose not given beside the values
[5] = target: unknown target molecule expressed on the plasma membranes of human HCC cells; assay: in vivo competition, 100 ug SP94 co-injected with 2x10^9 pfu PC94 (competitor of PC94), Mahlavu xenograft; phage recovered from tumor

| Binder | fold binding activity over control phage [1] [fold] | percent reactive cells (FACS) [2] [%] | percent reactive cells (FACS) [3] [%] | percent reactive cells (FACS) [4] [%] | percent inhibition of PC94 binding to tumor tissue [5] [%] |
| --- | --- | --- | --- | --- | --- |
| SFSIIHTPILPL (peptide, not shown: large carriers) [phage clone 94 (PC94)] | 8 | 19.1 | 47 to 81.2 | 25.7 to 31.9 |  |
| SFSIIHTPILPL [SP94 synthetic peptide (…)] |  |  |  |  | 88 |
